Laboratory results taken from publication PMC4439582 (Immunity, 2015).

Key:
[1] = target: IL-2Rβ/IL-2Rγ (Homo sapiens) (UniProt P14784); conditions: cited from earlier work
[2] = target: mIL-2:S4B6 immunocomplex (mouse | not stated) (UniProt P04351); assay: SPR
[3] = target: mouse interleukin-2 (mouse) (UniProt P04351)
[4] = target: mouse interleukin-2 displayed on the surface of yeast (mouse, UniProt P04351); assay: flow cytometry on cells

## IL-2 (from UniProt P60568)
[1]
  Kd: 1 nM

## mouse interleukin-2 receptor-β (from UniProt P16297 27-240)
[2]
  fold enhancement of binding over free mIL-2: 6 fold

B1: S4B6 antibody (antibody, V domains shown)
VH: EVQLQESGAELVRPGTSVKLSCKVSGDTITAYYLHFVRQRPGQGLEWIGRIDPEDDSTKYAENFKNKATFTADASSNTAYLRLSSLTSEDTATYFCTTVTFYYSRELRWFAYWGQGTLVTVSS
VL: DIQVTQSPASLSASLEEIVTITCQASQDIGNYLSWYQQKLGKSPQLLIHSATSLADGVPSRFSGSRSGTQYSLKINRLQVEDTGIYYCLQHYSTPYTFGAGTKLELK
[3]
  fold higher apparent affinity than the monovalent form: > 25 fold
[4]
  binding result: binds

B2: JES6-1 antibody (antibody, V domains shown)
VH: EIQLQQSGPELRRPGSSVKLSCKASGYNITDYLIHWVRHRPEHGLEWIGWIDPEDGETRYAQKFQSKATLTADTSSNAAYMQLSSLTPEDTATYFCARSLDSTYIYPFAYWGQGTLVTVSS
VL: DIVMTQSPFSLAVSEGEMVTINCKSSQSLLSSGNQKNYLAWYQQKPGQSPKLLIYYASTGQSGVPDRFIGSGSGTDFTLTISDVQAEDLADYYCLQHYISPPTFGAGTKLELK
[4]
  binding result: binds
